# Test results from IntAct's records for PubMed 16642037.
# B1: RAC-alpha serine/threonine-protein kinase (Rattus norvegicus (Rat)), P47196 (parent)
# chain: MNDVAIVKEGWLHKRGEYIKTWRPRYFLLKNDGTFIGYKERPQDVEQRESPLNNFSVAQCQLMKTERPRPNTFIIRCLQWTTVIERTFHVETPEEREEWTTAIQTVADGLKRQEEETMDFRSGSPSDNSGAEEMEVALAKPKHRVTMNEFEYLKLLGKGTFGKVILVKEKATGRYYAMKILKKEVIVAKDEVAHTLTENRVLQNSRHPFLTALKYSFQTHDRLCFVMEYANGGELFFHLSRERVFSEDRARFYGAEIVSALDYLHSEKNVVYRDLKLENLMLDKDGHIKITDFGLCKEGIKDGATMKTFCGTPEYLAPEVLEDNDYGRAVDWWGLGVVMYEMMCGRLPFYNQDHEKLFELILMEEIRFPRTLGPEAKSLLSGLLKKDPTQRLGGGSEDAKEIMQHRFFANIVWQDVYEKKLSPPFKPQVTSETDTRYFDEEFTAQMITITPPDQDDSMECVDSERRPHFPQFSYSASGTA
# Variants of: B1
# Conditions: with nfkb1_rat Nfkb1, Q63369
# Sequence of nfkb1_rat Nfkb1, Q63369 (Q63369 whole entry): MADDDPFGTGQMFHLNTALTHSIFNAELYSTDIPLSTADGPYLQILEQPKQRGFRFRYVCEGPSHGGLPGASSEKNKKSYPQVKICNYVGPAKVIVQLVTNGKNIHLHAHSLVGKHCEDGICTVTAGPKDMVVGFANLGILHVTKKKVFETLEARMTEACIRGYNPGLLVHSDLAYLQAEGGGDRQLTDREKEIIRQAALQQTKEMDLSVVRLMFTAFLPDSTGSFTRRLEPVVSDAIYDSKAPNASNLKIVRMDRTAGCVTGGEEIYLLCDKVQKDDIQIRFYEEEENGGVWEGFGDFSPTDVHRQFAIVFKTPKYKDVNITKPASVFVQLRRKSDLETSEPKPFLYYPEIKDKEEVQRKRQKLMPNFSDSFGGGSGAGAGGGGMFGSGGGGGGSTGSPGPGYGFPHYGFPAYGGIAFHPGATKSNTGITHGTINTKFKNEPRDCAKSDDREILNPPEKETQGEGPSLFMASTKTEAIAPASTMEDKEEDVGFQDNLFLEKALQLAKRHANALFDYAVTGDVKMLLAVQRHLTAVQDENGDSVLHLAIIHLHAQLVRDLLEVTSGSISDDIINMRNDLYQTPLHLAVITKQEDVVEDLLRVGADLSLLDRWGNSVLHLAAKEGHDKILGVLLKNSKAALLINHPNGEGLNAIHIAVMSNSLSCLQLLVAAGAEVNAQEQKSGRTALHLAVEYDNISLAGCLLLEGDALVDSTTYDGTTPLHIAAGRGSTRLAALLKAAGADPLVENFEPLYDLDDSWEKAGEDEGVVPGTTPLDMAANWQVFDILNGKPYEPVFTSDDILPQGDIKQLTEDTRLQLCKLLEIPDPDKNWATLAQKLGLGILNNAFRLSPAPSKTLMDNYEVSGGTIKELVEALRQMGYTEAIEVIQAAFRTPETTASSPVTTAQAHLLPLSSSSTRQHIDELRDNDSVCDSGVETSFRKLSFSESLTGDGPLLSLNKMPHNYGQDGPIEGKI
row,effect of a mutation on the interaction,Variant
1,increasing interaction,MNDVAIVKEGWLHKRGEYIKTWRPRYFLLKNDGTFIGYKERPQDVEQRESPLNNFSVAQCQLMKTERPRPNTFIIRCLQWTTVIERTFHVETPEEREEWTTAIQTVADGLKRQEEETMDFRSGSPSDNSGAEEMEVALAKPKHRVTMNEFEYLKLLGKGTFGKVILVKEKATGRYYAMAILKKEVIVAKDEVAHTLTENRVLQNSRHPFLTALKYSFQTHDRLCFVMEYANGGELFFHLSRERVFSEDRARFYGAEIVSALDYLHSEKNVVYRDLKLENLMLDKDGHIKITDFGLCKEGIKDGATMKTFCGTPEYLAPEVLEDNDYGRAVDWWGLGVVMYEMMCGRLPFYNQDHEKLFELILMEEIRFPRTLGPEAKSLLSGLLKKDPTQRLGGGSEDAKEIMQHRFFANIVWQDVYEKKLSPPFKPQVTSETDTRYFDEEFTAQMITITPPDQDDSMECVDSERRPHFPQFSYSASGTA [K179A]
2,increasing interaction,MNDVAIVKEGWLHKRGEYIKTWRPRYFLLKNDGTFIGYKERPQDVEQRESPLNNFSVAQCQLMKTERPRPNTFIIRCLQWTTVIERTFHVETPEEREEWTTAIQTVADGLKRQEEETMDFRSGSPSDNSGAEEMEVALAKPKHRVTMNEFEYLKLLGKGTFGKVILVKEKATGRYYAMKILKKEVIVAKDEVAHTLTENRVLQNSRHPFLTALKYSFQTHDRLCFVMEYANGGELFFHLSRERVFSEDRARFYGAEIVSALDYLHSEKNVVYRDLKLENLMLDKDGHIKITDFGLCKEGIKDGATMKDFCGTPEYLAPEVLEDNDYGRAVDWWGLGVVMYEMMCGRLPFYNQDHEKLFELILMEEIRFPRTLGPEAKSLLSGLLKKDPTQRLGGGSEDAKEIMQHRFFANIVWQDVYEKKLSPPFKPQVTSETDTRYFDEEFTAQMITITPPDQDDSMECVDSERRPHFPQFSYSASGTA [T308D]
3,increasing interaction,MNDVAIVKEGWLHKRGEYIKTWRPRYFLLKNDGTFIGYKERPQDVEQRESPLNNFSVAQCQLMKTERPRPNTFIIRCLQWTTVIERTFHVETPEEREEWTTAIQTVADGLKRQEEETMDFRSGSPSDNSGAEEMEVALAKPKHRVTMNEFEYLKLLGKGTFGKVILVKEKATGRYYAMKILKKEVIVAKDEVAHTLTENRVLQNSRHPFLTALKYSFQTHDRLCFVMEYANGGELFFHLSRERVFSEDRARFYGAEIVSALDYLHSEKNVVYRDLKLENLMLDKDGHIKITDFGLCKEGIKDGATMKTFCGTPEYLAPEVLEDNDYGRAVDWWGLGVVMYEMMCGRLPFYNQDHEKLFELILMEEIRFPRTLGPEAKSLLSGLLKKDPTQRLGGGSEDAKEIMQHRFFANIVWQDVYEKKLSPPFKPQVTSETDTRYFDEEFTAQMITITPPDQDDSMECVDSERRPHFPQFDYSASGTA [S473D]
